Experimental data published in a protein production outcome set (Wang et al. 2014).

Assay: label from the status in PepcDB records

| Sequence | protein production |
| --- | --- |
| MIKKTIGGIIPIFTAVFIPASAGAADLMLAQEYKGQDIAGWAMSEKLDGVRAYWDGKHLMSRQGYAFAPPKGFTAQFPPYPLDGELYSGRGQFEQISATVRSVSSDWRGIRLHVFDVPKAQGNLYQRLAVATQWLKTHPNAPITIIPQIKVRDRQHAMDFLKQIEAQGGEGVMLRQPESRYSGGRSSQLLKLKSQYDDECTVTRHYEGKGRNAGRLGAVGCKNRHGEFRIGSGFKDKDRDNPPKIGTLITYRYRGFTRKGTPKFATFVRVRTDR | failed |
| MRLVERHIVKTNHQFYKEIDDLAWRSKNLYNYVNYLVRQSFIFDGKYLNNAAIFHLVKHHESYTALPRKVSNQVLMVLHRNWKSFFETHKAYKQNPSKFKGCPKLPKYKNKEKGRNIVIYELGAISKPLLKQGVIKLSQTEIQFPTKASNIQQVRLIPQCGQYVVEVVYLQDATPQQLNPDWVAGIDIGLDNLAALTSNKPGFKPVLVNGRPLKAINQQYNKAKARLQSQLKGNAKTSRRIQALTCKRNNRIDNYLHNASRWIINHLASAGIGTLVIGKNDQWKQEINLGTTTNQNFVSIPHARFIEQLKYKAELVAMTVLINEESYTSASSFLDLDPIPVYQEGVKHSFSGKRIKRAWYQSANGRFIHADINASLNITRKVVPAAFSLGIAGIAVCPSRITPGKVAI | failed |
| MKWIEIYEKLVNIDTGPDLPLEGKLRRTSFLTEILEDLGFRVEKREAAYVAFRGKPPYVTLIGHLDTVFPEGESKRRPFTIEGNIAKGPGVCDMKGGVVILLESLKRFLQQNDTDLCVVLNVDEELGSPLSGEVFKEVAGMSSHCLSFEPGRENGELISSRKGIISLWLFARGKKGHASRLDEGANAIVELAFKVVELTSLNGRFPNLTLNPTIVKGGAESNVTPDKAEVYFDVRYYDDKEYEFLEETLKRLSAVHPEANVSYTLKLRRLPMKEDPDFVNIVKMSAEEIGMTVSFVRATGGGDVAFFSQNGVPSIDGLGIPGGKMHSEDEYARLDQFEDRVNLVVHLLRKLGGEKNVR | not failed |
| MQNLSLQKALKKPEVKTLLQQLGDSLGKNFAIFDIGGHCLWGKAQDSQPKVDIYCHQVLMGTITGEFTEHSAEAIAAMLSYIVQTEYEKKQLAKDTLQKYEEVVFLSQFANAVATCTGLQELIEVIRAEIRQVISVDEIFLYLYDQSQDSLTPLLYKTEESLQNFKAIEKIVERVLKLNQVEVIDDIQNDQDYLNQPSKIRSLLCYSLTVQNSIIGVLGLAHYQVKHFDSSDLNLFSTLTGQVAAAIRTAQYYETIKNYSQTLEIRVKERTMELEFAKQQLEQVNQRLKHLAIYDELTQIPNRRYFTSYLEQEWRQCLRQKSPISLILCDVDYFKNYNDLYGHQMGDKCLQSVAKVIQNALKRPSDVLARYGGEEFIVILPYTDQSGAYTVGQRIHHCLAEAQISHADSPTSRYLTISLGIGTTVPLLHYHPSDLIKIADQALYAAKAAGRNQTKLKTLSFQCS | failed |
| MTRYGLRARVITLTLAPTLIIGLLLSGFFSFNRYQDLEKQVITTGNSIIEPLAIASESHLLAESREAVRRLISYAHRKNSKLVRSIAVFDEHHELFVTSNFHPNFEALMFPKDKPIPKLGNSEIYENSLILRVPILSEGHYLSELSNENQGTKAIGYIAVEMDLSSLRLQQYQEVFSAFLVLILGLGLASVFASRLMHDVTQPITHMKNVVDRIRRGHLDVRIEGKMHGELDQLKNGINAMAVSLSEYHVEMQHSIDQATSDLRETLEQLEIQNVELDIAKKRAQEAARVKSEFLANMSHELRTPLNGVIGFTRQMLKTQLSNSQTDYLQTIEKSANNLLNIINDILDFSKLEAGKLALENIPFDFRESLEEVINLQATSAHEKGLEITLKVDPKIPPGLVGDPLRIQQILTNLVGNSIKFTERGNIDVSVEMRSQAGDSVELQFMVRDTGIGISERQQAQLFQAFSQADASISRRYGGTGLGLVITQKLVSQMGGEISLTSRLHQGSTFWFTLRLNSTEMPMSDLIEVELLTGKQLLLVEPNMQAASVTQQILSQEGILVTYRSSLPENEEHYDYVLLNLAANQTYDEQSVAAWIEQAKRMAPSVIMGTPSTELALADQIMTEHQIQCLTKPLSRRKLLQSLINEHVEAPQAITAPVETEESERLPLTVLAVDDNPANLKLISALLKERVETVTACSNGQQAVNLATEKKYDLIFMDIQMPLMDGVTACQNIKELELNKDTPVIAVTAHAMAGERDRLLAAGMDDYLTKPIEEHVLQQVLVHWNPNTCTESIGKVAPSYVDEPESEAPATAENTQPDVIIDWQAALKQSANKEDLAKDMLRMLIDFIPEVEEVVDHALEQDDYSREELIHVIHKLHGSSSYCGVPRLKSLCATLEHALRSGASIEEIEPEMFELQDEMIKVTTTAKLYLEQ | failed |
| MEISRGDFEQAYQNERNRMQAQLGDYFSNLLADPTYVASFRKSVLDRMVNDLLLEQHAASLGLRVSDEQVRQLILEIPQFQSQGVFDSTAYQATLRRAGFTPEMYAEYLRKDLVRNQLMSALQGSEFSLAGEVNLQDQLISQTRDIRTITLSLEDFAKKVTLSDEEIDQYYKTNTERFTRPEQVKVSYVELSADGLKAQVSVDDAAAQQYYQEHLDKYSTAEQRNVSHILIEGNDEQKAQAILDELNAGADFATLAKEKSQDLGSAAEGGSLGWIEPDTMDPAFEAAAFALTEKGQVSGLVKSDFGYHIIRLDDIKAPVVKPYSEVEQAIKQELIDQQALDSFYAKQSELEKMAFEHSDSLDEAAKAISATVVHTDFISAEQAPEVLTTPAVLQALKSPEVKEDGLNSEVIEVAPEHVVVVRVEEFRPETVLPLDEVKSQVVEQLSRMKGEQQALELGNQLVTALKAGETDLLAQKGVSFGELQMIDRSSPLANTVYAMVKPQEGEKVYAQAKDFDGNIVVIELSKVESKLTPAYHEQIATQLERIGSQQDLAGVISVLRQNTDIEYHIATELEHHHHHH | not failed |
| MELPEKPQLYLITPPEFELSSFPDVLARVLDTHKVACVRLELAARDEDTVSRAADALREVTHARDIALVLSDHSVLADRLGLDGVHLSDAARSVRETRKLLGEDAIIGSFCGTSRHDGMSAGEAGADYICFGPVAASSLGDGSYVAQEVFEWWSEFIEVPVVAEGGLDAARIAQLTPFTDFFAFGQEVWSAEYPAQRLGELLEAMG | failed |
| MNMDPLIYVAALLFTGLLAGLATGLLGVGGGFIIAPVLFFLMEAGGTPPDIAIRTAFGTSLAIILPTALSGAHSHYRRKCVDSRIGITMGVLGACGSVAGVFTASASPAYVLRAFFGVLLILVSAQLLLSSRISPSGFGRNAAFPLGFLAGFLSGLLGIGGGVVLVPLLVMVAGFDVLEAVGTSSLVIAFTAASGTISYIFTGPGGPFTVGYVNLLQFLLVIVMSVPSSRLGALIAHRVDVRYIRYIFIILLLFTGLKMLL | failed |
| MPRGLILATPQLPPDGTPFSARYDDVYHSTEGGLAQAHHVFLGGNGLPGGWQGKRSFTIVETGFGQGLNFLATWAAWRDDPQRCGRLDFVSVEKHPFDRAGLALVHAQEGALASLAEALRQAWPVPVPGVHRLVFDAGRVTLTLMLGDAETLLPQLSCAADAFYLDGFSPAKNPDLWQPGVFKQLARIARGGATLATYTAAGAVRHGLREAGFEVRKAPGFGRKRDMTVAAFPTHWRTRRGPAEAPVWPERHAIVLGAGLAGCSVAERLAARGWRITLIDEHEAPAGGASAHRAAAMHPHVSIDDSVLSRLSRAGNLLARRHWEALDRAGFATGFHPTGVLQLAEHADDAAEQQRIVQALGFPADFIAWLDAARAADRVGAGVPQGGWWFAQAGWVAPPDICRAALAAAGEAVELRWRTRIESLLRHDAGWRACDAQGNVIAHAPVVVLANSLDAVRLAPLASAALKPVRGQLTDVPVAALEDGVPWPRAVVCGDGYLLPRERGAPTVRVGSSFQPGETDPDARTADHAANLRRLAGLQPAHAAALARVDPARLLGYVGVRCVSANRLPLIGAVADEAAIMAPGFRLRGPHAALPRVPGLYAALAYGSRGLTWSVLGAELLAAQIDGGPLPLESELAAALDPGRFLMRALRHGKHAA | failed |
| MKIAVDAMGGDNAPQAIVEGVMLAKQDFPDIEFQLYGKEAEIKKYITDEKNITIIHTDEKIASDDEPVKAIRRKKTASMVLAAQAVKNGEADAIFSAGNTGALLAAGLFIVGRIKNVERPGLMSTLPVMGEPDKGFDMLDLGANADNKPEHLVQYAVLGSFYAEKVRNVQNPRVGLLNNGTEETKGSELTKKAFELLAADETINFVGNVEARELLNGVADVVVTDGFTGNAVLKSIEGTAMNMMSLLKTAILSEGVKGKMGALLLKNALHGMKDEMDYSKHGGAVLFGLKAPVIKTHGATGPDAVRYTIRQIHTMLETQVVPQLVEYYEGKAE | not failed |
| MVYSTTTGRFCGLFCLRDQMPVSTNRHPYSENTMEIIVNGEARAATPMSMLELLRSLDIDPRRVAVELNHDILPKGEYESTILNDGDRIEIVHFVGGGLEHHHHHH | not failed |
